# From US20220396819A1, “METHOD FOR PRODUCING PEPTIDE HAVING PHYSIOLOGICAL ACTIVITY, AND PEPTIDE COMPRISING SHORT LINKER” (priority 2019, published 2022)
# Entries after “also recorded” stand apart in the source; their conditions may differ. Like-named read-outs stand apart in the source and are kept apart here. Positions of bridges follow the written chain, without caps; N, C: chain ends. No end group written: not given here.
# T1: thrombopoietin receptor c-Mpl (human, UniProt P40238 26-635)
# T1 sequence (looked up): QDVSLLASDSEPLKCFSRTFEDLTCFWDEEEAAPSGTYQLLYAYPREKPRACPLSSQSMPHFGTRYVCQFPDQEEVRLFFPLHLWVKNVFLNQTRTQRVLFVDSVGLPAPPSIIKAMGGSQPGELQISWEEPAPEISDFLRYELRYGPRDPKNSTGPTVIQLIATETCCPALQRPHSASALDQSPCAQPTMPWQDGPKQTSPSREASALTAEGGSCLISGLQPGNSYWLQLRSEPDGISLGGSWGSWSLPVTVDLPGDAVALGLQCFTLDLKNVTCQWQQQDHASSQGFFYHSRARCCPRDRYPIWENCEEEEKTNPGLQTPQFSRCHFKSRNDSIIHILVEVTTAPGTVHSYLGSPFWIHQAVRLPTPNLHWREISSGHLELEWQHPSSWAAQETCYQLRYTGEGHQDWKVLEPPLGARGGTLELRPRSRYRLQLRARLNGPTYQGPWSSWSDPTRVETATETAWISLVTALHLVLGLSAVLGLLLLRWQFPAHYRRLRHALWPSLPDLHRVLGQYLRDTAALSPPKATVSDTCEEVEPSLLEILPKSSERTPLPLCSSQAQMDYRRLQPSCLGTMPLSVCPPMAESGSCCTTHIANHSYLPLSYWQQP
# T2: EpoR (UniProt P19235 25-508, limits assumed)
# T2 sequence (looked up): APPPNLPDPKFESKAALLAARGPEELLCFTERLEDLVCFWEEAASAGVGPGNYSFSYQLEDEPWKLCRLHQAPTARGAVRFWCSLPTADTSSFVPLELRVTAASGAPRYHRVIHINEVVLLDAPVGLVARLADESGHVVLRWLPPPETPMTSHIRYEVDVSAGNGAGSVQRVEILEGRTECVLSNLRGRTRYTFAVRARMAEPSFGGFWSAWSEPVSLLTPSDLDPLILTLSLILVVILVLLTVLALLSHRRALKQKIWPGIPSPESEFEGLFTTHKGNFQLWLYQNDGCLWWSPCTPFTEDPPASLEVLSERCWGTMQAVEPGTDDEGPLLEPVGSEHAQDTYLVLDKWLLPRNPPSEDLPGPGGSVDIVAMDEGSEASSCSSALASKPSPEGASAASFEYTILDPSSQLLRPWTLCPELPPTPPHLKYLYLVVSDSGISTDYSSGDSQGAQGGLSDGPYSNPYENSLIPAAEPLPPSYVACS
# Tests used:
# VEGFR [1] = target: T3, VEGFR (Homo sapiens, UniProt P35968); assay: VEGF inhibitory ability, luciferase assay in VEGFR/NFAT Reporter HEK293 cells; type: cell-based
# T3 construct: host or cells: VEGFR/NFAT Reporter HEK293 cells
# T3 sequence (P35968 20-1356): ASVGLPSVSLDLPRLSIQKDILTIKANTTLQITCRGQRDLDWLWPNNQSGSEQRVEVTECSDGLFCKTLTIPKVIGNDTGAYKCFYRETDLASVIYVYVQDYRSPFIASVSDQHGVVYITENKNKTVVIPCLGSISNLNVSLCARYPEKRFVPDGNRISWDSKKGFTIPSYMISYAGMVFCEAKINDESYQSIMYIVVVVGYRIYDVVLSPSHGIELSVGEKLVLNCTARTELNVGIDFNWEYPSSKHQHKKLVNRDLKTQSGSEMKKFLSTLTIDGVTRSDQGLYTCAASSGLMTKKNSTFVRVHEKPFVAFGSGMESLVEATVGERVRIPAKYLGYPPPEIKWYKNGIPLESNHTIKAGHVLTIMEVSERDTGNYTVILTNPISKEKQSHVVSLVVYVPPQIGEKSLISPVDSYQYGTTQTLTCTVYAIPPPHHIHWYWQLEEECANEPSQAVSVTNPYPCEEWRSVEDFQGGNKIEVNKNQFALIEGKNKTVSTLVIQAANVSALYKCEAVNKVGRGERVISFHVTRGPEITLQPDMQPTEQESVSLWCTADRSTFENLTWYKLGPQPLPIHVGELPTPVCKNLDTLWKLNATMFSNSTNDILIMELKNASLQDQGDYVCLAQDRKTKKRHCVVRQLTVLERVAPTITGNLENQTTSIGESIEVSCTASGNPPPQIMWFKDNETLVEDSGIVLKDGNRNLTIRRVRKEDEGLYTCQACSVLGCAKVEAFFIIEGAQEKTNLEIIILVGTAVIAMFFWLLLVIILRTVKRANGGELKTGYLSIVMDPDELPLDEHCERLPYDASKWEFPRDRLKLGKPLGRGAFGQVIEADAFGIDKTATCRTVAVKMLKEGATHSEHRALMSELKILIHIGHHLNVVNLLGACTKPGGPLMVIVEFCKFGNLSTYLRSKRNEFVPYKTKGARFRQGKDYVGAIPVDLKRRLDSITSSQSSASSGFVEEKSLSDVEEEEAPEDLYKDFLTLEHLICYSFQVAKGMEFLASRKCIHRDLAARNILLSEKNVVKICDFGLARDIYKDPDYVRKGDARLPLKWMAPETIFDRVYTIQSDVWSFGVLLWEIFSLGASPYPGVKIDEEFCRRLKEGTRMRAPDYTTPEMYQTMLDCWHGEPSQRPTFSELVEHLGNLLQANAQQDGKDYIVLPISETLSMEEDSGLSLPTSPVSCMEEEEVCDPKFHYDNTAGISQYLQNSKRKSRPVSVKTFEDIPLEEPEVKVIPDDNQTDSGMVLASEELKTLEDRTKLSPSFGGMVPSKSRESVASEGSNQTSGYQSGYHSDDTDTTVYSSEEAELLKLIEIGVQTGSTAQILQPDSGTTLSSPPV
# Method: The VEGF inhibitory ability of the VEGFR_D2-PAS heterodimer peptide was evaluated by luciferase assay. 40,000 cell/well VEGFR/NFAT Reporter HEK293 cells (BPS Bioscience) were seeded and incubated overnight in a 5% CO2 incubator at 37° C. The cells were incubated overnight in Assay medium (MEM medium (Nacalai Tesque), 1×MEM Non-Essential Amino Acids Solution (Thermo Fisher Scientific), 1 mM Sodium Pyruvate (Nacalai Tesque), 1% Penicillin-Streptomycin (Sigma Aldrich), and 0.3% FBS (Thermo Fisher Scientific)) to starvation. […] The cells were stimulated by culturing in a 5% CO2 incubator at 37° C. for 4 hours.
# One-Glo Luciferase Assay System (Promega) was used to detect the signal intensity. Medium supernatant in an amount of 50 μL was removed, 50 μL of One-Glo reagent was added, and the cells were lysed for 10 minutes at room temperature. The luminescence emitted from the cell lysate solution was detected with a Nivo plate reader (Perkin Elmer) to quantify the activation of the VEGFR-NFAT pathway, and the relative signal activity value for the sample without addition of evaluation compound was determined and used as relative receptor activity.
# The VEGF inhibitory ability of the cell-free expressed VEGFR_D2-PAS heterodimer peptide was evaluated by luciferase assay. 40,000 cell/well VEGFR/NFAT Reporter HEK293 cells (BPS Bioscience) were seeded and incubated overnight in a 5% CO2 incubator at 37° C. The cells were incubated overnight in Assay medium (MEM medium (Nacalai Tesque), 1×MEM Non-Essential Amino Acids Solution (Thermo Fisher Scientific), 1 mM Sodium Pyruvate (Nacalai Tesque), 1% Penicillin-Streptomycin (Sigma Aldrich), and 0.3% FBS (Thermo Fisher Scientific)) to starvation. To the Assay medium, 100 μL of 10 ng/mL human recombinant VEGF (R&D Systems) was added, and further, MAET-VEGFR_D2-PAS16, MAET-VEGFR_D2-PAS49-b, MAET-VEGFR_D2-PAS100-b, or a cell-free expression solution containing MAET-VEGFR_D2-GS16, or a cell-free expression solution with unexpressed peptide was added at a predetermined dilution factor, and 100 μL of the Assay medium was added to the cells. The cells were stimulated by culturing in a 5% CO2 incubator at 37° C. for 4 hours.
# The VEGF inhibitory ability of the VEGFR_D2-PAS heterodimer peptide linker variant was evaluated by luciferase assay. 40,000 cell/well VEGFR/NFAT Reporter HEK293 cells (BPS Bioscience) were seeded and incubated overnight in a 5% CO2 incubator at 37° C. The cells were incubated overnight in Assay medium (MEM medium (Nacalai Tesque), 1×MEM Non-Essential Amino Acids Solution (Thermo Fisher Scientific), 1 mM Sodium Pyruvate (Nacalai Tesque), 1% Penicillin-Streptomycin (Sigma Aldrich), and 0.3% FBS (Thermo Fisher Scientific)) to starvation. To the Assay medium, 10 ng/mL human recombinant VEGF (R&D Systems) was added, and further, a culture supernatant containing VEGFR_D2-PAS16, VEGFR_D2-PAS49, or VEGFR_D2-PAS100 at a predetermined concentration was added, and 100 μL of the Assay medium was added to the cells. The cells were stimulated by culturing in a 5% CO2 incubator at 37° C. for 4 hours. Note that VEGFR_D2-PAS16 was obtained according to the method described in Example 27.
# [2] = target: T1, thrombopoietin receptor c-Mpl; assay: cell-based or functional assay
# EpoR = target: T2, EpoR; assay: cell-based or functional assay
# VEGFR [3] = target: VEGFR (UniProt P35968 20-1356, limits assumed); assay: cell-based or functional assay
# VEGFR (UniProt P35968 20-1356, limits assumed), sequence (P35968 20-1356 limits assumed): as the sequence (P35968 20-1356) above
# [4] = Example 39, cell-free expression solution, 10 ng/mL VEGF, FIGS. 71 and 72
molecule,measurement,setting,value
"AETAGPTWCEDDWYYCWLFGTAAPAAPAPAAPAAPAPAAPAAPAPAAPAAPAPAAPAAPAPAAPAAPAPAVCWEDSWGGEVCWLFGT (disulfide 9-16, 72-82) [AET-VEGFR_D2-PAS49]",IC50,VEGFR [1],1.43 nM
"AETAGPTWCEDDWYYCWLFGTAAPAAPAPAAPAAPAPVCWEDSWGGEVCWLFGT (disulfide 9-16, 39-49) [AET-VEGFR_D2-PAS16]",IC50,VEGFR [1],0.26 nM
same,VEGF inhibitory activity (relative VEGF activity),"VEGFR [1]; Example 29, purified by HPLC, 10 ng/mL VEGF, 4 hours, FIG. 47",higher inhibitory activity than the monomer peptides P3 and Pm4
"AETAGPTWCEDDWYYCWLFGTGGGGSGGGGSGGGGSGVCWEDSWGGEVCWLFGT (disulfide 9-16, 39-49) [AET-VEGFR_D2-GS16]",IC50,VEGFR [1],2.93 nM
"MAETAGPTWCEDDWYYCWLFGTAAPAAPAPAAPAAPAPVCWEDSWGGEVCWLFGT (disulfide 10-17, 40-50) [MAET-VEGFR_D2-PAS16]",VEGF inhibitory activity (relative VEGF activity),VEGFR [1]; [4],higher inhibitory activity than MAET-VEGFR_D2-PAS100-b; also recorded: higher inhibitory activity than MAET-VEGFR_D2-GS16
recombinant human TPO (from UniProt P40225 22-195) (ligand),"relative CREB phosphorylation level (pCREB ELISA, HEL cells, 100 ng/mL rhTPO)",[2],143%
"AET-EPO-GS8 (disulfide 9-18, 37-46) peptide: AETGGLYACHMGPMTWVCQPLRGGGGGSGGGGGLYACHMGPMTWVCQPLRG",EC50,EpoR,0.53 ng/mL
"AET-EPO-GS22 (disulfide 9-18, 51-60) peptide: AETGGLYACHMGPMTWVCQPLRGGGGGSGGGGSGGGGSGGGGSGGGGLYACHMGPMTWVCQPLRG",EC50,EpoR,1.3 ng/mL
AET-EPO-PAS49 (two disulfide bonds in the molecule) peptide: AETGGLYACHMGPMTWVCQPLRGAAPAAPAPAAPAAPAPAAPAAPAPAAPAAPAPAAPAAPAPAAPAAPAPAGGLYACHMGPMTWVCQPLRG,EC50,EpoR,4.3 ng/mL
AET-EPO-PAS100 (two disulfide bonds in the molecule) peptide: AETGGLYACHMGPMTWVCQPLRGAAPAAPAPAAPAAPAPAAPAAPAPAAPAAPAPAAPAAPAPAAPAAPAPAAPAAPAPAAPAAPAPAAPAAPAPAAPAAPAPAAPAAPAPAAPAAPAPAAPAGGLYACHMGPMTWVCQPLRG,EC50,EpoR,6.6 ng/mL
"AET-VEGFR_D2-PAS16 (disulfide 9-16, 39-49) peptide: AETAGPTWCEDDWYYCWLFGTAAPAAPAPAAPAAPAPVCWEDSWGGEVCWLFGT",IC50,VEGFR [3],1.5 ng/mL
"AET-VEGFR_D2-GS16 (disulfide 9-16, 39-49) peptide: AETAGPTWCEDDWYYCWLFGTGGGGSGGGGSGGGGSGVCWEDSWGGEVCWLFGT",IC50,VEGFR [3],16 ng/mL
AET-VEGFR_D2-PAS49 (two disulfide bonds in the molecule) peptide: AETAGPTWCEDDWYYCWLFGTAAPAAPAPAAPAAPAPAAPAAPAPAAPAAPAPAAPAAPAPAAPAAPAPAVCWEDSWGGEVCWLFGT,IC50,VEGFR [3],12 ng/mL
AET-VEGFR_D2-PAS100 (two disulfide bonds in the molecule) peptide: AETAGPTWCEDDWYYCWLFGTAAPAAPAPAAPAAPAPAAPAAPAPAAPAAPAPAAPAAPAPAAPAAPAPAAPAAPAPAAPAAPAPAAPAAPAPAAPAAPAPAAPAAPAPAAPAAPAPAAPAVCWEDSWGGEVCWLFGT,IC50,VEGFR [3],86 ng/mL
same,IC50,"VEGFR [1]; Example 46, culture supernatant, 10 ng/mL VEGF, 4 hours, Table 8",86 ng/mL
"GGCADGPTLREWISFCGGAAPAAPAPGGCADGPTLREWISFCGG (disulfide 3-16, 29-42) [TPO2-PAS8]","relative CREB phosphorylation level (pCREB ELISA, HEL cells)",[2],136%
TPO2-PAS49 (two disulfide bonds in the molecule) peptide: GGCADGPTLREWISFCGGAAPAAPAPAAPAAPAPAAPAAPAPAAPAAPAPAAPAAPAPAAPAAPAPAGGCADGPTLREWISFCGG,"relative CREB phosphorylation level (pCREB ELISA, HEL cells)",[2],131%
TPO2-PAS100 (two disulfide bonds in the molecule) peptide: GGCADGPTLREWISFCGGAAPAAPAPAAPAAPAPAAPAAPAPAAPAAPAPAAPAAPAPAAPAAPAPAAPAAPAPAAPAAPAPAAPAAPAPAAPAAPAPAAPAAPAPAAPAAPAPAAPAGGCADGPTLREWISFCGG,"relative CREB phosphorylation level (pCREB ELISA, HEL cells)",[2],112%
"GGCADGPTLREWISFCGGGGGGSGGGGGCADGPTLREWISFCGG (disulfide 3-16, 29-42) [TPO2-GS8]","relative CREB phosphorylation level (pCREB ELISA, HEL cells)",[2],121%
MAETAGPTWCEDDWYYCWLFGTSAPSPSSAPASASAPASPASASASASPASSPASASSASPAASSASPASSVCWEDSWGGEVCWLFGT (MAET-VEGFR_D2-PAS49-b; DISULFID (10)..(17) Disulfid bridge between Cys-10 and Cys-17; DISULFID (73)..(83) Disulfid bridge between Cys-73 and Cys-83) MAETAGPTWCEDDWYYCWLFGTSAPSPSSAPASASAPASPASASASASPASSPASASSASPAASSASPASSVCWEDSWGGEVCWLFGT,VEGF inhibitory activity (relative VEGF activity),VEGFR [1]; [4],higher inhibitory activity than MAET-VEGFR_D2-PAS100-b
